# Measurements reported in patent publication US20170281788A1.
# Molecular target: insulin receptor (IR-B), P06213
# Assay: cell-based or functional assay
binder,measurement,value
GLP-1/insulin fusion GLP-DP8 (ligand) HAEGTFTSDVSSYLEEQAAREFIAWLVRGRGGPEHLCGAHLVDALYLVCGDRGFYFNDRGAGSSSRRGIVDECCHRSCDLRRLENYCN,potency (activity at the insulin subtype B receptor),9.9
